The values that follow come from patent US9907791B2, “Ron inhibitors for use in preventing and treating bone loss” (UNIVERSITY OF UTAH RESEARCH FOUNDATION, priority 2014, dated 2018).

For one assay, the system named is PyMT-MSP tumor cells. In words: Intratibial PyMT-MSP tumor-induced osteolysis. It counts as in vivo, mice. An excerpt:
(§1) All procedures involving mice and experimental protocols were approved by the Institutional Animal Care and Use Committee (IACUC) of the University of Utah. The RonTK−/− mice which reside on the FVB background, were crossed with NOD.SCID mice for an immune-compromised mouse model. As a control, wild-type FVB mice were also crossed with NOD.SCID mice. The STK−/− mice, which are on a C57BL/6 background, were compared to wild-type C57BL/6 mice as controls. Mice for all experiments were 6 to 8 weeks of age. For intratibial injections, 1×10^5 (PyMTor DU4475) or 3×10^5 (MDA-MB-231) tumor cells were resuspended in 10 μL matrigel and injected into the right tibia of anesthetized female FVB (PyMT) or NOD.SCID mice carrying various alleles of RON. Osteolysis was assessed by X-ray radiography. Dissected hindlimbs from mice sacrificed at the final time point in each experiment were placed in the Kodak In-vivo Multispectral Imaging System FX and exposed to X-ray radiography at 35 kV for 100 sec. Excess tumor tissue was removed from the bones prior to X-ray. Osteolytic lesions were quantified using Image J software (NCBI). All images were compared to the contralateral leg as an internal control.
Hindlimb bones were excised from mice at the time of sacrifice and bones were fixed in 10% neutral-buffered formalin, decalcified in Formical-2000 (Decal Corporation, Tallman, N.Y.) for 8 days and embedded in paraffin for hematoxylin and eosin (H & E) or immunohistochemical staining. Osteoclast number was assessed as TRAP^+ multinucleated cells containing 4 or more nuclei and reported as TRAP^+ cells per field. Three sections per mouse and 5 fields per section were used for quantification with fields representing the entire length of the tibia. Tumor proliferation rate was reported as the number of cells which were positive for phospho-H3 staining compared to the number of unstained cells per field expressed as a percent. Three sections per mouse and 5 fields per section were used for quantification with analysis being restricted to within the bone marrow cavity. […]

Assay [1] relates to MDA-MB-231 control tumor cells. In words: Intratibial MDA-MB-231 control tumor-induced osteolysis. Format: in vivo, NOD.SCID mice. As to conditions: treated 3 days post tumor cell injection, sacrificed 30 days.
Excerpt: as §1
(§2) For in vivo experiments, the OSI-296 inhibitor was dissolved in 40% Trappsol with 0.01 M HCl, and mice were treated at a concentration of 200 mg/kg daily by oral gavage. […]

Assay [2] has as its system MSP-overexpressing MDA-MB-231 cells. Description: Intratibial MSP-overexpressing MDA-MB-231 tumor-induced osteolysis. Format: in vivo, NOD.SCID mice. As to conditions: treated 3 days post tumor cell injection, sacrificed 30 days.
Excerpt: as §1, §2

B1: muRANK-Fc: murine RANKL antagonist (Amgen) (protein)
chain: VTPPCTQERHYEHLGRCCSRCEPGKYLSSKCTPTSDSVCLPCGPDEYLDTWNEEDKCLLHKVCDAGKALVAVDPGNHTAPRRCACTAGYHWNSDCECCRRNTECAPGFGAQHPLQLNKDTVCTPCLLGFFSDVFSSTDKCKPWTNCTLLGKLEAHQGTTESDVVCSSSMTLRRPPKEAQAYLPS
modifications: left off: a dimerising Fc or GST
Regarding B1, the “MSP-driven osteolysis in Ron TK−/− mice” value with PyMT-MSP tumor cells (Ron TK−/− mice, treatment began 3 days post tumor cell injection) was “did not reduce this further”. Also, the “TRAP+ osteoclasts in tumor-bearing bones” value in the assay on PyMT-MSP tumor cells (TRAP staining of bone sections) is given as “lack of TRAP+ cells”. For the same molecule, the “osteolysis from PyMT-MSP tumors” value with PyMT-MSP tumor cells (WT mice, treatment began 3 days post tumor cell injection) is reported as “significant osteolysis even in the presence of the RANKL antagonist”. Also, in assay [1], the “osteolysis from control MDA-MB-231 tumor cells” value is recorded as “reduced osteolysis”. The “osteolysis from MSP-expressing MDA-MB-231 tumor cells” value in assay [2] is “did not significantly reduce”.
